In patent US20060205649A1 one finds amount of CtBP recruited to CHRM4, the NRSF target gene (ChIP, JTC-19 cells grown with 2-DG or glucose) and NADH concentration data, which are given here for two substances.

In experiment [1] the target is NRSF (endogenous, JTC-19 rat lung fibroblasts) (rat) (UniProt O54963). The experiment is described as follows: cell-based or functional assay.
The target in experiment [2] is MYC-tagged NRSF protein. As to the kind of experiment: co-immunoprecipitation (anti-KT3) of HEK cell protein incubated with 0-1000 nM NADH, anti-MYC Western blot; the varied concentration is that of NADH, not of a protein.
Chain of MYC-tagged NRSF protein (Q13127 whole entry): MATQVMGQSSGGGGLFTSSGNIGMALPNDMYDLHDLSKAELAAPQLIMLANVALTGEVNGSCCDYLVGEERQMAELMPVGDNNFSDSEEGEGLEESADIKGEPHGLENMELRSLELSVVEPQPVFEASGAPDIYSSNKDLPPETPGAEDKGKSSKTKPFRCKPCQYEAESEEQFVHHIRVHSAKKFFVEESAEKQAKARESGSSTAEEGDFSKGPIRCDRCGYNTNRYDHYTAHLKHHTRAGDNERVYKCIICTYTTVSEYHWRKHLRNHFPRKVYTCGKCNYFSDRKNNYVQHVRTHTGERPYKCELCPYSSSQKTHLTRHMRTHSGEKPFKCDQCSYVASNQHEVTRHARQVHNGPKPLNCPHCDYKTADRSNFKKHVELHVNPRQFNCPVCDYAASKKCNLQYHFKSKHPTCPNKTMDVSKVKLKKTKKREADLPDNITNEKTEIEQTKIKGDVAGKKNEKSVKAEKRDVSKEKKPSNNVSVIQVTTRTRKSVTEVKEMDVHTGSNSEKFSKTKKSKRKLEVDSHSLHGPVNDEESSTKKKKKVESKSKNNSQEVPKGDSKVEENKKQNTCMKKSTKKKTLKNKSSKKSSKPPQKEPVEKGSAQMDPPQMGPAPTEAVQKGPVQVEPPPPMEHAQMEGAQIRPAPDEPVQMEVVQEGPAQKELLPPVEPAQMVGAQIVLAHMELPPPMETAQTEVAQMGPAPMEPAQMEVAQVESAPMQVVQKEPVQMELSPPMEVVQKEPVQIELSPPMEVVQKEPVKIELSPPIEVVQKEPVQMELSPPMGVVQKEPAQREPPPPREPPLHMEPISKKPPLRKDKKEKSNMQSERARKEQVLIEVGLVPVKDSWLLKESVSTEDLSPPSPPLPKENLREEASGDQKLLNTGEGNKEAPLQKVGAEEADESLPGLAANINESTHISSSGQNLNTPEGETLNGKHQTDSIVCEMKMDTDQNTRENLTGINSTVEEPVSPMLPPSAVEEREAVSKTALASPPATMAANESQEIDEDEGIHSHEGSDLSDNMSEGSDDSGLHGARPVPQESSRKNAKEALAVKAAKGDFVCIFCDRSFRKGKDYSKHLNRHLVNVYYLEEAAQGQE

Chain of NRSF (endogenous, JTC-19 rat lung fibroblasts) (rat) (O54963 whole entry): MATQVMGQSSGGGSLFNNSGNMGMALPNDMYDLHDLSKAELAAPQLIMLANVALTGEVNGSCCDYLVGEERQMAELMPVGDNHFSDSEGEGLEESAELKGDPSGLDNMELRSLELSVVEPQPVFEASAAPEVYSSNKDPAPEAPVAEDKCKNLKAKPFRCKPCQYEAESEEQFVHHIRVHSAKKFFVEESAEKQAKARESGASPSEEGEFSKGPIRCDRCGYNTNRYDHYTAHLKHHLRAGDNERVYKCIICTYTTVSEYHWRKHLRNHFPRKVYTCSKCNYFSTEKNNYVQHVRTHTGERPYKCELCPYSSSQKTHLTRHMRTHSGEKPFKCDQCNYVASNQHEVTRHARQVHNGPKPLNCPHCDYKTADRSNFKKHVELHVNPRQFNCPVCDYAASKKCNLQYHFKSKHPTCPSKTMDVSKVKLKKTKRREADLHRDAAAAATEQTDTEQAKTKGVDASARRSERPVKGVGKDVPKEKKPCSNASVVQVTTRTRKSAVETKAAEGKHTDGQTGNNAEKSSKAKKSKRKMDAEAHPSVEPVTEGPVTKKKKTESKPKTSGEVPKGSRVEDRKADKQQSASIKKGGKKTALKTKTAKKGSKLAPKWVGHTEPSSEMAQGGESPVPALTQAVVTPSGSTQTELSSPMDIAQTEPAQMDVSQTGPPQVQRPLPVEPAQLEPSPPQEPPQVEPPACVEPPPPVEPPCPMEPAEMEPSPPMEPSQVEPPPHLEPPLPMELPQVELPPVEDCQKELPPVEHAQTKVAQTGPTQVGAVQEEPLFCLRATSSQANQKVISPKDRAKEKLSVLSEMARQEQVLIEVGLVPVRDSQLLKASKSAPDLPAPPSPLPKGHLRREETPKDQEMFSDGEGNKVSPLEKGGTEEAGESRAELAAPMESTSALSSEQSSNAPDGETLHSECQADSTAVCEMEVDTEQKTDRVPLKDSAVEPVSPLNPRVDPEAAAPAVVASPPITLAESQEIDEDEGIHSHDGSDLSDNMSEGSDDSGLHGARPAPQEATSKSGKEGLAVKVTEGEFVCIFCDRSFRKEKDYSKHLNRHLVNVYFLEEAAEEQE
Chain of KT3-tagged CtBP2 (P56546 whole entry): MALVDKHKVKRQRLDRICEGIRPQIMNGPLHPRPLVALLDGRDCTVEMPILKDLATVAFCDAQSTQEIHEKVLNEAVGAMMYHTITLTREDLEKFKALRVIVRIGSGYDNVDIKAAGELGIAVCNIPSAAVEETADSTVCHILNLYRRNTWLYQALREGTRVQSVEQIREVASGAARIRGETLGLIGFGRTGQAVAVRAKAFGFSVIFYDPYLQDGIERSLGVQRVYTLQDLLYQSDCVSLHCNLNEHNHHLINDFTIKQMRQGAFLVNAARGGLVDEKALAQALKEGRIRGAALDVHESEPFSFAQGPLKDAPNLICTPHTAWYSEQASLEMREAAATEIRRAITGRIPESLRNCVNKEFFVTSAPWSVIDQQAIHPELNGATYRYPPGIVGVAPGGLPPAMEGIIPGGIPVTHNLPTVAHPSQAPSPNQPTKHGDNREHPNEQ

In experiment [1], “CtBP (endogenous, JTC-19 rat lung fibroblasts) (from UniProt F7FG31 1-441)” gave an amount of CtBP recruited to CHRM4, the NRSF target gene (ChIP, JTC-19 cells grown with 2-DG or glucose) of 5 fold.
With KT3-tagged CtBP2, the NADH concentration at half maximal binding of CtBP to NRSF in experiment [2] was 70 nM.
